Results: the nanobody polyreactivity screen of Harvey et al. (2022)

Test: yeast display, Sf9 membrane polyspecificity reagent, FACS + sequencing; frameworks hold sequencing errors
Procedure, shortened: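 Using colony PCR, genes from sorted yeast display clones were amplified, then sequenced on MiSeq at 2 × 250 and filtered by CDR length. The clones had been stained with 10% biotinylated, detergent-solubilized Sf9 membrane reagent for 1 hour at 4 °C and sorted by FACS into low and high (top ~1%) gates on anti-HA and streptavidin fluorescence. Polyreactivity labels come from the gate of origin.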

Row | Sequence | polyreactivity (PSR sort gate)
1 | QVQLVESGGGLVQAGGSLRLSSAASGSIFGSNAMGWYRPAPVKERELVAAISSGSTYYADSVKGRFTISRDNAKNTVYLQMNSLKPEDTAVYYCYARSLLYEFDYWGQGTQVTVSS | low polyreactivity
2 | QVQLVESGGGLVQAGGSLRLSSAASGSIFGYAMGWYRQAPGKERELVARIDWSGGRTYYADSVKGRFTISRDNAKNTVYLQMYSLKPDDTAVYYCYARRYLYRGNIVDYWGQGTQVTVSS | high polyreactivity
3 | QVQLVESGGGLVQAGGSLRLSSAASGSIFPANALGWYRQAPGKERELVAASTANGGSTYYADSVKGRFTISRDNAKNTVYLQMNSLKPEDTAVYYCNAYFVSGHAGGYDYWGQGTQETVSS | high polyreactivity
4 | QVQLVESGGGLVQAGGSLRLSSAASGSIFPYYAMGWYRQAPGKERELVAAISWSGTSTYYADSVKGRFTISRDNAKNTVYLQMNSLKPEDTAVYYCNAGYYHFYASGYDYWGQGTQVTVSS | low polyreactivity
5 | QVQLVESGGGLVQAGGSLRLSSAASGSIFRFYTMGWYRQAPGKERELVAAISASGGNTYYADSVKGRFTISRDNAKNTVYLQMNSLKPEDTAVYYCARVKFTKYDYWGQGTQVTVSS | high polyreactivity
6 | QVQLVESGGGLVQAGGSLRLSSAASGSIFSDYAMGWYRQAPGKERELVAAISGTGGGTYYADSVKGRFTISRDNAKNTVYLQMNSLKPEDTAVYYCAADYVFAWWGDYYWGQGTQVTVSS | high polyreactivity
7 | QVQLVESGGGLVQAGGSLRLSSAASGSIFVLNAMGWYRQAPGKERELVAAITNVGSTYYADSVKGRFTISRDNAKNTVYLQMNSLKPEDTAVYYCNADPGEVLVGYDYWGQGTQVTVSS | low polyreactivity
8 | QVQLVESGGGLVQAGGSLRLSSAASGSIFWVYAMGWYRQAPGKERELVAAISNRGGSTYYADSVKGRFTISRDNAKNTVYLQMNSLKPEDTAVYYCAAVVAHHYYWGQGTQVTVSS | high polyreactivity
9 | QVQLVESGGGLVQAGGSLRLSSAASGSIFYKNAKGWYRQAPGKEREFVAGISRRGGSTYYADSVKGRFTISLDNAKNTVYLQMNSLKPEDTAVYYCASSQSGGYDYWGQGTQVTVSS | high polyreactivity
10 | QVQLVESGGGLVQAGGSLRLSSAASGSIFYSYAMGWYRQAPGKERELVARMSSGGSTYYADSVKGRFTISRDNAKNSVYLQMNSLKPEDTAVYYCAAEALYYPYETYDYWGQGTQETVSS | high polyreactivity
11 | QVQLVESGGGLVQAGGSLRLSSAASGSTFDHYAMGWYRQAPGKERELVAAITWSGGRTYYADSVKGRFTISRDNAKNTVYFQMNSLKPEDTAVYYCAARGYQIRVANYKYDSWGQGTQVTVSS | low polyreactivity
12 | QVQLVESGGGLVQAGGSLRLSSAASGSTFIRYAMGWYRQAPGKERELVAAISTSGGSTYYADSVKGRFTISRDNAKNTVYLQMNSLKPEDTAVYYCNAVSRSYRYAGVPGFHYDYWGQGTQVTVSS | high polyreactivity
13 | QVQLVESGGGLVQAGGSLRLSSAASGSTFKFYAMGWYRQAPGKERELVAAIRYSGGSTYYADSVKGRFTISRDNAKNTVYLQMNSLKPEDTAVYFCATEAQCVTYWFGYWGQGTQVTVSS | low polyreactivity
14 | QVQLVESGGGLVQAGGSLRLSSAASGSTFKYYAMGCYRQAPGKERELVAAITNDGSTSYADSVKGRFTISRDNAKNTVYLQMNSLTPEDTAVYYCNARSKYPSYFSSMGYWGQGTQVTVSS | high polyreactivity
15 | QVQLVESGGGLVQAGGSLRLSSAASGSTFKYYAMGWYRPDPGKERELVAAIRTSGGRTYYADSVKGRFTISRDNAKNTVDLQMNSLKPEDSAVYFCNARYNQFGQRFDYWGQGSQVTVSS | high polyreactivity
16 | QVQLVESGGGLVQAGGSLRLSSAASGSTFPDYDMGWYRQAPGKERELVAAITSSGGITYYADSVKGRFTISRDNAKNTVYLQMNSLKPEDTSVSYCAAYGYGSNYRYTGYYYWGQGTEVTVSS | low polyreactivity
17 | QVQLVESGGGLVQAGGSLRLSSAASGSTFPSYAMGWYRQAPGKERELVAAINSGGGTNYADSVKGRFTISRDNAKNTVYLQMNSLKPEDTAVYYCAKSRYDYTKTEGGYWGLGTQVTVSS | low polyreactivity
18 | QVQLVESGGGLVQAGGSLRLSSAASGSTFPVNARGCYRQAPGKERELVAAISSRGSSTYYADSVKGRFTISRDNAKNTVYLQMHSLNREDTAVYYCAAQQRFPRFYYWGEGTQVTVSS | high polyreactivity
19 | QVQLVESGGGLVQAGGSLRLSSAASGSTFPYNAMGWYRQAPGKARELVAAITSRGGSTYYADSVKGRFTISRDNAKNTVYLQMNSLKPEDTAVYYCATPGDTYGWTRRRYYYWGQGTQVTVSS | high polyreactivity
20 | QVQLVESGGGLVQAGGSLRLSSAASGSTFQIYTMGWSRQAPGKESELVAAITNGGGSTYYADSVKGRFTISRDNAKNTVYLQMNSLKPEDTAVYYCAAEQRYPLIILYDDWGQGTQVTVSS | low polyreactivity
21 | QVQLVESGGGLVQAGGSLRLSSAASGSTFRGNAMGWYRQAPGKERELVAAITGRGGRTYYADSVKGRFTISRDNAKNTVYLQMNSLKPEDTAVYYCAAYSRYKPYGITAYDYWGLGTQVTVSS | high polyreactivity
22 | QVQLVESGGGLVQAGGSLRLSSAASGSTFRYYTMGWYRPAPGKERELVADITIGGSTYYADSVKGRFTISRDNAKNTVYLQMNSLKPEDSAVYYCAARSTGGRIFATGVAYDYWGQGTQVTVSS | low polyreactivity

Row | Sequence | polyreactivity (PSR sort gate)
23 | QVQLVESGGGLVQAGGSLRLSSAASGSTFTSYAMGWYRQAPGKERELVAAINYSGGSTYYADSVKGRFTISRDNAKNNVYLQMNILKQEDTAVYDCAADGYIRQYVTYYYWGQGTQVTVSS | low polyreactivity
24 | QVQLVESGGGLVQAGGSLRLSSAASGSTFTSYAMGWYRQAPGKEREVVSTITGRGGSTSYSDSVKGRFTISRDNAKNTVYLQMNSLKPEDTAVYYCAKRVVVWYFGTGDYWGQGTKVTVSS | low polyreactivity
25 | QVQLVESGGGLVQAGGSLRLSSAASGSTFYRYAMGWYRQAPGKERELVAAISRSGGNTFYADSVKGRFTISRDNAKNTVYLQMNSLKPEDTAVYYCAALRSWYGQTSGMDYWGQGTQVTVSS | high polyreactivity
26 | QVQLVESGGGLVQAGGSLRLSSAASGSTLVIYAMGWYRQAPGIERQLVAAIDANTGSTYYADSVKGRFTISLDNAKNTDYLQMNSLKPEDTAVYYCNAQVYLPTAYDYWGQGTLVTVSS | low polyreactivity
27 | QVQLVESGGGLVQAGGSLRLSSAASGSTSFQNAMGWYRQATGKEREFVAAISGSGDRTNYADSVKGRFTISRDNAMYTVYVQMNSLKPEDTAVYYCAAVRGYPPSNYYYWGQGTQVTVSS | high polyreactivity
28 | QVQLVESGGGLVQAGGSLRLSSAASGSTYDFKAMGWNRQAHGKERELFAAITGSGGSTDNADSVKGRFTISRDNAKNSVYLQMNSLKPEDTAVYYCNAGKTFDYRDGVGYDHWGQGTQVTVSS | low polyreactivity
29 | QVQLVESGGGLVQAGGSLRLSSAASGYIFTYYTMGCSRQAPGKERELVAAITYSGSRTRYADSVKGRFTISRDNAKNTVYLQMNSLKPEDNAVYYCAAVYRLKSGGEWRDSQFGYWGQGTQVTVSS | high polyreactivity
30 | QVQLVESGGGLVQAGGSLRLSSAGSGSIFTGYAMGWYRPAPGKERELVAAIRTRGGSTYYADSVKGRFTISRDNAKNTVYLQMNSLKPEDNAVYYCANRYFGWYGNFDDWGQGTQVTVSS | high polyreactivity
31 | QVQLVESGGGLVQAGGSLRLSSASSGFTFSYYAMGWSRPAPGKERELVAAITSDGGRTYYADSVKGRFTISRDNAKNTVYLQMNSLKPEDTAVYYCAARTRYRGIKGYNYWGQGTQVTVSS | high polyreactivity
32 | QVQLVESGGGLVQAGGSLRLSSASSGSIFYVYAMGWYRQAPGKERELVAAIYSGASTYYADSVKGRFTISRDNAKNSVYLQMNSLKPEDTAVYYCADERYFYEYDYWGQGTQVTVSS | low polyreactivity
33 | QVQLVESGGGLVQAGGSLRLSSDASGSIFHTYAMGWYRQAPGKERELVAAITVSGGDTYYADSVKGRFTISRDNAKNTVYLQKISLKAEDTAVYYCAVDTTTSYTVEYDYWGQGTQVTVSS | low polyreactivity
34 | QVQLVESGGGLVQAGGSLRLSSPASGRTFPGNPMGWYRQAPGKLRELVAAITRVRSTYYADSVKGRFTISRDNAKNTVYLQMNWLKPEDTVVYYCAADRLEGSYEDDATGFDDWGQGTQVTVSS | low polyreactivity
35 | QVQLVESGGGLVQAGGSLRLSSSASGSTFWYYVRGRYRQAPGKERELVAAISTRGDSTYYADSVKGRFTISRDNAKNSVYLQINSLKPEDTAVYYCAKSRQSSGRVRFDYWGQGTEVTVSS | low polyreactivity
36 | QVQLVESGGGLVQAGGSLRLSTAASGSTLWYNDMGWFRKAPGKERELVASITSDGGSSTYADSVKGRFTISRDNEKNTVYLQMNSLKPEDTAVYYCAADWPIVQYDYWGQGTQVTVSS | low polyreactivity
37 | QVQLVESGGGLVQAGGSLRLSWAASGFIFPYNAMGWYRQAPGKERELVAVISSSGGDTYYADSVKGRFTISRDNAKNTVYLQMNSLIPVDTAVYYCAADSYYGYEYWGQGTQVTVSS | low polyreactivity
38 | QVQLVESGGGLVQAGGSLRLSWAASGGNFEYNAMGWYRQAPGKERELVAAITNGGSTNYADSVKGRFSISRDNAKNTVYIQMNSLKPDDTAVYYCATVFFVLPPTRFASWGQGTQVTVSS | low polyreactivity
39 | QVQLVESGGGLVQAGGSLRLSWAASGRTFDYNAMGWYRQAPGKERELVAAITSSGGSTYYADSVKGRFTISRDNAKNTVYLQMNSLKPEDTAVYYCDTDGQSPYYIYYWGQGTQVTVSS | low polyreactivity
40 | QVQLVESGGGLVQAGGSLRLSWAASGSIFGLNALGWYRQAPGKERELVADITSGGGNTYSADSVKGRFTISRDNAKNTVYLQMNSLKPEDTAVYYCNADYDLYFSGWYDYWGQGTQVTVSS | low polyreactivity
41 | QVQLVESGGGLVQAGGSLRLSWAASGSIFTLNAMGWYRQAPGKERELVAAIRWSGGSTYYADSVKGRFTISRDNAKNTGYLQRNRLKPEDTAVYYCAAKYPSDYYSPGFKYWGQGTQVTVSS | high polyreactivity
42 | QVQLVESGGGLVQAGGSLRLSWAASGSKSCADVMGWYRPEPGKERELLAAISSGTSTYYADSVKGRFTISRDNAKNTVYLQMNSLKPEDTGVYYCAAYYYSYPTNGGYGYCGQGTQVTVSS | low polyreactivity
43 | QVQLVESGGGLVQAGGSLRLSWAASGSSFGYAMGWYRQGPGKERELVAAISFSGVSTYYADSVKGRFTISRDNAKHTVYLQMNSLKPEDTAVYYCNAYSDGDEDYWGQGTQVTVSS | low polyreactivity
